Measurements as given in patent US20160272693A1 (ZEALAND PHARMA A S, published 2016).
*1 amine or outer side, *2 acyl side, *3 side chain or, on linkers, in order; H or OH if unused. Bridges are numbered along the chain shown (N, C = ends). [ ]: non-standard residue; d: D form. The star is where a group is joined. C20 diacid = O=C(O)CCCCCCCCCCCCCCCCCCC(=O)*; γGlu = O=C(O)[C@H](CCC(=O)[*:2])N[*:1]; NMeI = CC[C@H](C)[C@H](NC)C(=O)O; Sar = CNCC(=O)O

Molecular target: T1, human amylin receptor 3 (hAMYR3), hCTR2 co-expressed with human receptor activity modifying protein 3 (hRAMP3) (human, UniProt P30988 25-474; O60896 24-148)
T1 sequence (looked up) 1: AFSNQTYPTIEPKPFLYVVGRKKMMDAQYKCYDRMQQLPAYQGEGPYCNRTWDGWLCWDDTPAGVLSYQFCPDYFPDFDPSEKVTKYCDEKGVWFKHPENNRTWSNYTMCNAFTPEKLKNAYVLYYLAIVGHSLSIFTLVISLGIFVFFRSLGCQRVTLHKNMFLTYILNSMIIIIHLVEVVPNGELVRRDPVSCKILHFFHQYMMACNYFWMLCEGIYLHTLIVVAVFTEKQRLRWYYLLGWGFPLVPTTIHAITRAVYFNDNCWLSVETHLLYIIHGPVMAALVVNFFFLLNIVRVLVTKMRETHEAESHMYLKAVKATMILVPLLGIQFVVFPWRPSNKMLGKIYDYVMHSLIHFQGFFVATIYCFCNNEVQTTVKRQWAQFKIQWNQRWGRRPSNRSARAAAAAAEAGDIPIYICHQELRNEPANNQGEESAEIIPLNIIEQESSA
T1 sequence (looked up) 2: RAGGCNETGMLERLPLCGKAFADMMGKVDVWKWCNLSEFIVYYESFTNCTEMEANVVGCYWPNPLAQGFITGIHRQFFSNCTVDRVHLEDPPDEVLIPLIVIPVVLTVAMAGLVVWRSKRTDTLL
Test: cell-based or functional assay

B1: [19CD]-isoGlu-R-C( )-GTAT-C( )-ATERLAHFLVRSSF-Gly(Me)-A-Ile(Me)-LSSTEVGSETP-NH2 (Compd. 22) (peptide)
peptide: {C20 diacid}-[γGlu]RCGTATCATERLAHFLVRSSF[Sar]A[NMeI]LSSTEVGSETP-NH2
modifications: disulfide 3-8
SMILES: CC[C@H](C)[C@@H](C(=O)N[C@@H](CC(C)C)C(=O)N[C@@H](CO)C(=O)N[C@@H](CO)C(=O)N[C@H](C(=O)N[C@@H](CCC(=O)O)C(=O)N[C@H](C(=O)NCC(=O)N[C@@H](CO)C(=O)N[C@@H](CCC(=O)O)C(=O)N[C@H](C(=O)N1CCC[C@H]1C(N)=O)[C@@H](C)O)C(C)C)[C@@H](C)O)N(C)C(=O)[C@H](C)NC(=O)CN(C)C(=O)[C@H](Cc1ccccc1)NC(=O)[C@H](CO)NC(=O)[C@H](CO)NC(=O)[C@H](CCCNC(=N)N)NC(=O)[C@@H](NC(=O)[C@H](CC(C)C)NC(=O)[C@H](Cc1ccccc1)NC(=O)[C@H](Cc1c[nH]cn1)NC(=O)[C@H](C)NC(=O)[C@H](CC(C)C)NC(=O)[C@H](CCCNC(=N)N)NC(=O)[C@H](CCC(=O)O)NC(=O)[C@@H](NC(=O)[C@H](C)NC(=O)[C@@H]1CSSC[C@H](NC(=O)[C@H](CCCNC(=N)N)NC(=O)CC[C@H](NC(=O)CCCCCCCCCCCCCCCCCCC(=O)O)C(=O)O)C(=O)NCC(=O)N[C@@H]([C@@H](C)O)C(=O)N[C@@H](C)C(=O)N[C@@H]([C@@H](C)O)C(=O)N1)[C@@H](C)O)C(C)C
  hAMYR3 EC50 (nM); cAMP induction: 0.59 nM

B2: [19CD]-isoGlu-R-C( )-PTAT-C( )-ATDRLAHFLVRSSF-Gly(Me)-A-Ile(Me)-LSSTDVGSDTP-NH2 (Compd. 23) (peptide)
peptide: {C20 diacid}-[γGlu]RCPTATCATDRLAHFLVRSSF[Sar]A[NMeI]LSSTDVGSDTP-NH2
modifications: disulfide 3-8
SMILES: CC[C@H](C)[C@@H](C(=O)N[C@@H](CC(C)C)C(=O)N[C@@H](CO)C(=O)N[C@@H](CO)C(=O)N[C@H](C(=O)N[C@@H](CC(=O)O)C(=O)N[C@H](C(=O)NCC(=O)N[C@@H](CO)C(=O)N[C@@H](CC(=O)O)C(=O)N[C@H](C(=O)N1CCC[C@H]1C(N)=O)[C@@H](C)O)C(C)C)[C@@H](C)O)N(C)C(=O)[C@H](C)NC(=O)CN(C)C(=O)[C@H](Cc1ccccc1)NC(=O)[C@H](CO)NC(=O)[C@H](CO)NC(=O)[C@H](CCCNC(=N)N)NC(=O)[C@@H](NC(=O)[C@H](CC(C)C)NC(=O)[C@H](Cc1ccccc1)NC(=O)[C@H](Cc1c[nH]cn1)NC(=O)[C@H](C)NC(=O)[C@H](CC(C)C)NC(=O)[C@H](CCCNC(=N)N)NC(=O)[C@H](CC(=O)O)NC(=O)[C@@H](NC(=O)[C@H](C)NC(=O)[C@@H]1CSSC[C@H](NC(=O)[C@H](CCCNC(=N)N)NC(=O)CC[C@H](NC(=O)CCCCCCCCCCCCCCCCCCC(=O)O)C(=O)O)C(=O)N2CCC[C@H]2C(=O)N[C@@H]([C@@H](C)O)C(=O)N[C@@H](C)C(=O)N[C@@H]([C@@H](C)O)C(=O)N1)[C@@H](C)O)C(C)C
  hAMYR3 EC50 (nM); cAMP induction: 0.13 nM

B3: [19CD]-isoGlu-R-C( )-PTAT-C( )-ATDRLAHFLHRSSF-Gly(Me)-A-Ile(Me)-LSSTDVGSNTP-NH2 (Compd. 25) (peptide)
peptide: {C20 diacid}-[γGlu]RCPTATCATDRLAHFLHRSSF[Sar]A[NMeI]LSSTDVGSNTP-NH2
modifications: disulfide 3-8
SMILES: CC[C@H](C)[C@@H](C(=O)N[C@@H](CC(C)C)C(=O)N[C@@H](CO)C(=O)N[C@@H](CO)C(=O)N[C@H](C(=O)N[C@@H](CC(=O)O)C(=O)N[C@H](C(=O)NCC(=O)N[C@@H](CO)C(=O)N[C@@H](CC(N)=O)C(=O)N[C@H](C(=O)N1CCC[C@H]1C(N)=O)[C@@H](C)O)C(C)C)[C@@H](C)O)N(C)C(=O)[C@H](C)NC(=O)CN(C)C(=O)[C@H](Cc1ccccc1)NC(=O)[C@H](CO)NC(=O)[C@H](CO)NC(=O)[C@H](CCCNC(=N)N)NC(=O)[C@H](Cc1c[nH]cn1)NC(=O)[C@H](CC(C)C)NC(=O)[C@H](Cc1ccccc1)NC(=O)[C@H](Cc1c[nH]cn1)NC(=O)[C@H](C)NC(=O)[C@H](CC(C)C)NC(=O)[C@H](CCCNC(=N)N)NC(=O)[C@H](CC(=O)O)NC(=O)[C@@H](NC(=O)[C@H](C)NC(=O)[C@@H]1CSSC[C@H](NC(=O)[C@H](CCCNC(=N)N)NC(=O)CC[C@H](NC(=O)CCCCCCCCCCCCCCCCCCC(=O)O)C(=O)O)C(=O)N2CCC[C@H]2C(=O)N[C@@H]([C@@H](C)O)C(=O)N[C@@H](C)C(=O)N[C@@H]([C@@H](C)O)C(=O)N1)[C@@H](C)O
  hAMYR3 EC50 (nM); cAMP induction: 0.094 nM

B4: [19CD]-isoGlu-R-C( )-NTAT-C( )-ATQRLAHFLVRSSF-Gly(Me)-A-Ile(Me)-LSSTEVGSETP-NH2 (Compd. 24) (peptide)
peptide: {C20 diacid}-[γGlu]RCNTATCATQRLAHFLVRSSF[Sar]A[NMeI]LSSTEVGSETP-NH2
modifications: disulfide 3-8
SMILES: CC[C@H](C)[C@@H](C(=O)N[C@@H](CC(C)C)C(=O)N[C@@H](CO)C(=O)N[C@@H](CO)C(=O)N[C@H](C(=O)N[C@@H](CCC(=O)O)C(=O)N[C@H](C(=O)NCC(=O)N[C@@H](CO)C(=O)N[C@@H](CCC(=O)O)C(=O)N[C@H](C(=O)N1CCC[C@H]1C(N)=O)[C@@H](C)O)C(C)C)[C@@H](C)O)N(C)C(=O)[C@H](C)NC(=O)CN(C)C(=O)[C@H](Cc1ccccc1)NC(=O)[C@H](CO)NC(=O)[C@H](CO)NC(=O)[C@H](CCCNC(=N)N)NC(=O)[C@@H](NC(=O)[C@H](CC(C)C)NC(=O)[C@H](Cc1ccccc1)NC(=O)[C@H](Cc1c[nH]cn1)NC(=O)[C@H](C)NC(=O)[C@H](CC(C)C)NC(=O)[C@H](CCCNC(=N)N)NC(=O)[C@H](CCC(N)=O)NC(=O)[C@@H](NC(=O)[C@H](C)NC(=O)[C@@H]1CSSC[C@H](NC(=O)[C@H](CCCNC(=N)N)NC(=O)CC[C@H](NC(=O)CCCCCCCCCCCCCCCCCCC(=O)O)C(=O)O)C(=O)N[C@@H](CC(N)=O)C(=O)N[C@@H]([C@@H](C)O)C(=O)N[C@@H](C)C(=O)N[C@@H]([C@@H](C)O)C(=O)N1)[C@@H](C)O)C(C)C
  hAMYR3 EC50 (nM); cAMP induction: 0.19 nM

B5: [19CD]-isoGlu-R-C( )-GTAT-C( )-ATERLAHFLHRSSF-Gly(Me)-A-Ile(Me)-LSSTEVGSETP-NH2 (Compd. 26) (peptide)
peptide: {C20 diacid}-[γGlu]RCGTATCATERLAHFLHRSSF[Sar]A[NMeI]LSSTEVGSETP-NH2
modifications: disulfide 3-8
SMILES: CC[C@H](C)[C@@H](C(=O)N[C@@H](CC(C)C)C(=O)N[C@@H](CO)C(=O)N[C@@H](CO)C(=O)N[C@H](C(=O)N[C@@H](CCC(=O)O)C(=O)N[C@H](C(=O)NCC(=O)N[C@@H](CO)C(=O)N[C@@H](CCC(=O)O)C(=O)N[C@H](C(=O)N1CCC[C@H]1C(N)=O)[C@@H](C)O)C(C)C)[C@@H](C)O)N(C)C(=O)[C@H](C)NC(=O)CN(C)C(=O)[C@H](Cc1ccccc1)NC(=O)[C@H](CO)NC(=O)[C@H](CO)NC(=O)[C@H](CCCNC(=N)N)NC(=O)[C@H](Cc1c[nH]cn1)NC(=O)[C@H](CC(C)C)NC(=O)[C@H](Cc1ccccc1)NC(=O)[C@H](Cc1c[nH]cn1)NC(=O)[C@H](C)NC(=O)[C@H](CC(C)C)NC(=O)[C@H](CCCNC(=N)N)NC(=O)[C@H](CCC(=O)O)NC(=O)[C@@H](NC(=O)[C@H](C)NC(=O)[C@@H]1CSSC[C@H](NC(=O)[C@H](CCCNC(=N)N)NC(=O)CC[C@H](NC(=O)CCCCCCCCCCCCCCCCCCC(=O)O)C(=O)O)C(=O)NCC(=O)N[C@@H]([C@@H](C)O)C(=O)N[C@@H](C)C(=O)N[C@@H]([C@@H](C)O)C(=O)N1)[C@@H](C)O
  hAMYR3 EC50 (nM); cAMP induction: 0.12 nM
